Measured values reported in US20160311918A1, “Anti-Ron Monoclonal Antibodies as a Cytotoxic Drug Delivery System for Targeted Cancer Therapy” (TEXAS TECH UNIVERSITY SYSTEM, priority 2013, published 2016).

Key:
RON-negative LoVo cells = assay: Cell viability assay, LoVo; format: cell-based, human
Method: Cell viability and death assays: Cell viability 72 h after Zt/g4-DM1 treatment was determined by the MTT assay (22). Viable or dead cells were determined by the trypan blue exclusion assay. A total of 900 cells were counted from three individual wells to reach the percentages of dead cells.
The effect of Zt/g4-DM1 on cell viability was determined. […] The cells were treated with Zt/g4-DM1.

[1] = Acute toxicity in Balb/c mice; format: in vivo, mouse
Method: FIGS. 6A to 6C show the toxicity of Zt/g4-DM1 in vivo. Body weight was measured every four days during the period of Zt/g4-DM1 treatment. FIG. 6A: Effect of multiple doses of Zt/g4-DM1 on mouse body weight was determined by administration of Zt/g4-DM1 at 1, 3, 7, 10, 15 mg/kg every four day with a total of 5 injections. Mice were weighed and monitored for a total of 31 days. FIG. 6B: Effect of a single dose of Zt/g4 at 20 mg/kg on mouse body weight was determined using mice bearing HT29, HCT116, or SW620-derived tumors. Body weight was monitored up to 28 days. FIG. 6C: Effect of high doses of Zt/G4-DM1 on mouse body weight was analyzed by tail vein injection at 20, 40 and 60 mg/kg to Balb/c mice. Mice were euthanized at day 21. In all cases, the average body weight of mice before Zt/g4-DM1 injection was 19.8±3.6 grams (5 mice per group) and set as 100%;
In vivo toxicity studies: Acute toxicity with maximum tolerated dose was determined in Balb/C mice (four mice per dose) by a single tail vein injection of Zt/g4-DM1 at 20, 40, and 60 mg/kg body weight. Toxicity associated with different therapeutic doses was evaluated in athymic nude mice bearing HT29 tumor xenograft (five mice per dose). […] Toxicity was assessed by observing mouse behavior, weight loss, and survival.
Toxic effect of Zt/g4-DM1 on mice. Three studies using two different types of mice were performed to study Zt/g4-DM1 on animal behavior and body weight. The first study addressed the impact of multi-doses of Zt/g4-DM1. Athymic nude mice were injected five times with 1, 3, […], 7, 10, 15 mg/kg of Zt/g4-DM1 and monitored every four days for a total period of 31 days. […] The second study observed the effect of a single dose of Zt/g4-DM1 at 20 mg/kg in nude mice bearing tumors derived from HT29, HCT116, and SW620 cells. […] The third study involved a single-dose injection of Zt/g4-DM1 at 20, 40, and 60 mg/kg in Balb/c mice monitored for 24 days (FIG. 6C). […] Also, a moderate reduction of about 6% body weight was observed within the first four days after 60 mg/kg Zt/g4-DM1 injection. Although the average body weight from this group of mice slowly recovered during the observation period, the overall average remained lower than that of control mice with a 19% difference compared to that of control mice at day 24. Thus, Zt/g4-DM1 at the multiple-dose regimen appeared to be well tolerated.

[2] = system: HCT116-luc2 xenograft tumor; assay: HCT116-luc2 mouse xenograft tumor model; format: in vivo; settings: single dose 20 mg/kg
Method: Athymic nude mice (five mice per group) were subcutaneously inoculated with 5×10^6 HCT116, HT29, and SW620 cells followed by injection of 20 mg/kg Zt/g4-DM1 through tail vein. FIG. 4A: Tumor growth from HT29-luc2 or HCT116-luc2 cells was determined by measuring average photon intensity (left panel). SW620-derived tumor growth was monitored by measuring tumor volume (FIG. 4B) (right panel). FIG. 4C: Tumor images with photon emission or caliper measurement at day 16 are presented. The scale from minimal to maximal is set at 300 to 35,000 photons per second. The percentages of inhibition were calculated from the average photon emission (for HT29 and HCT116 cells) or tumor volume (for SW620 cells). […] The percentages of inhibition were calculated by a formula: (average tumor weight from Zt/g4-DM1 treated group/average tumor weight from control mice)×100%;
Mouse xenograft CRC model and anti-RON ADC treatment: All mice studies were approved by the institutional animal care committee. […] Bioluminescence from individual tumors was measured every four days using Caliper IVIS image system (PerkinElmer). Tumor volumes from SW620-derived tumors were measured according to a formula: V=pi/6×1.58×(length×width)^3/2 (18,33). […]
The inventors first determined the efficacy of a single dose of Zt/g4-DM1 at 20 mg/kg body weight on tumors derived from HCT116, HT29, and SW620 cells. […]

[3] = system: HT29, HCT116, and SW620 cells; assay: Cell cycle analysis by flow cytometry; format: cell-based, human; settings: 5 μg/ml

B1: Zt/g4-DM1: anti-RON mouse mAb Zt/g4 conjugated to maytansinoid DM1 via non-reducible thioether linkage (SMCC), DAR about 4:1 (conjugate)
VH: EVQLQQSGAELVKPGASVKLSCTTSGFNIIDTYIHWVNQKPDQGLEWIGRIDPADGNRKSDPKFQVKATITVDTSSNTAYLQLSSLTSGDTAVYYCARGYGNLNAMDSWGQGTSVTVSS
VL: DIQMNQSPSSLSASLGDTITITCHASQNINVWLNWYQQKPGNIPKLLIYKASNLHTGVPSRFSGSGSGTGFTLTISSLQPEDIATYYCQQGQSYPLTFGGGTKLEIK
effect on cell viability (RON-negative LoVo cells): no effect
average reduction in mouse body weight ([1]; 60 mg/kg): 12%
toxic effect on mouse behavior or body weight ([1]; doses up to 40 mg/kg): no toxic effect on mouse behavior or body weight
distress ([1]; single dose 60 mg/kg, Balb/c mice): Moderate distress
body weight difference compared to control mice ([1]; single dose 60 mg/kg, day 24): 19%
reduction of body weight ([1]; single dose 60 mg/kg, within the first four days): about 6%
inhibition by average bioluminescence intensity ([2]; day 16): More than 95%
inhibition rate by average tumor weight ([2]; day 28): 58.0%
time at which cell cycle profile changes were observed [3]: ≤ 3 h
effect on cell cycle ([3]; three CRC cell lines): dramatic increase in G2/M phase
